Test results taken from article PMC12017984.
One block for each substance: values may come before it.

Experiments:
[1] = molecular target: Recombinant human apolipoprotein A-IV, apoA-IV^WT, His tag-free (human) (UniProt P06727); test: ITC
[2] = molecular target: Recombinant His-tagged human apolipoprotein A-IV, apoA-IV^T347S (human) (UniProt P06727); test: BLI
[3] = molecular target: Recombinant human apolipoprotein A-IV, apoA-IV^T347S, His tag-free (human) (UniProt P06727); test: ITC

Kd1 [1]: 0.63 µM
Kd2 [1]: 54 nM
dH1 [1]: 11.3 kJ/mol
dH2 [1]: -113 kJ/mol
Substance: Recombinant human apolipoprotein A-IV, apoA-IV^WT, His tag-free (from UniProt P06727 21-396) (natural protein)

Kd [2]: 0.397 µM
Substance: Human platelet integrin αIIbβ3 (from UniProt P05106 27-788) (receptor)

Kd [3]: 102 µM
dH [3]: -142 kJ/mol
Substance: Recombinant human apolipoprotein A-IV, apoA-IV^T347S, His tag-free (from UniProt P06727 21-396) (natural protein)
